Measured values published in patent US20240262917A1, “ANTIBODIES AGAINST ALK AND METHODS OF USE THEREOF” (Dana-Farber Cancer Institute, Inc., priority 2021, published 2024).
Entries after “also recorded” stand apart in the source; their conditions may differ.

Experiments:
ALK receptor = assay: Immunocytochemistry and immunohistochemistry staining of ALK; assay type: binding; settings: 293T and NB9464 cells expressing WT ALK; tumor tissue from ALK F1174L/MYCN transgenic mouse model
Description: (A). Immunocytochemistry staining with the 8G7 antibody of 293T and NB9464 (mouse neuroblastoma cells derived from Th-MycN transgenic tumor model; Weiss et al, 1997) cells expressing a control vector or WT ALK. 5×10^6 cells were fixed in 10% formalin and images captured using a Zeiss AXIO Imager Z1 fluorescence microscope following staining. (B) Immunohistochemistry of tumor tissue from the ALK F1174L/MYCN transgenic mouse model using the 8G7 antibody.

ALK [1] = assay: Western blot analysis of ALK in cell lysates and conditioned media; assay type: binding, human
Description: (§1) (A) Western blot analysis of ALK in Kelly and SHEP neuroblastoma cells overexpressing GFP and mutated ALK using the mAb-7 and 8G7 anti-ALK antibodies. The mAb-7 antibody was developed at the Vigny laboratory (INSERM, Unité 706/Université Pierre et Marie Curie, Paris F-75005, France) (Moog-Lutz et al, 2005; PMID: 15886198) and obtained through a Materials Transfer Agreement. (B) Western blot analysis of ALK expression in various non-neuroblastoma cell lines: H1373 (human […]), HeLa (cervical cancer), NIH-3T3 (transformed mouse fibroblast cells) using 8G7 and C26G7 (rabbit monoclonal C-terminal anti-ALK antibody; Cell Signaling Technology; Cat #3333; RRID:AB_836862) anti-ALK antibodies.
(§2) The three HPLC-purified monoclonal antibodies (5H3, 7F7 and 8G7) all of the IgG1 subtype, were tested for their ability to bind to ALK in neuroblastoma cells expressing ALK. Both cell lysates and supernatants from cells grown with and without serum (to increase the expression of ALK) were tested by western blotting. […] (A) Western blot analysis of the indicated hybridoma clones in neuroblastoma cell lines expressing WT (NGP) and mutated (SHSY5Y, Kelly) ALK. NIH3T3 cells were used as controls. (B) Western blot analysis of conditioned media from NGP neuroblastoma and 293T cells engineered to express the WT ALK receptor, with the three ALK mAbs showing binding with the shed ALK extracellular domain. […]
Cell lysates were prepared in NP-40 buffer (Invitrogen) containing complete protease inhibitor (Roche), phosphatase inhibitor (Roche) and phenylmethylsulfonyl fluoride (PMSF). Lysates were incubated on ice for 20 min and centrifuged at 16,000 g for 15 min at 4° C. Protein concentrations of the supernatants were determined with the DC protein assay kit (Bio-Rad). Protein samples were denatured using NuPAGE LDS sample buffer (Invitrogen) and NuPAGE sample reducing agent (Invitrogen). Proteins were then separated on precast 4-12% Bis-Tris gels (Invitrogen) and transferred to nitrocellulose membranes (Bio-Rad). […]

ALK [2] = target: ALK (Homo sapiens, UniProt Q9UM73); assay: as above; assay type: binding; design: endogenous in cells; host or cells: human neuroblastoma lines (NGP, SH-SY5Y, Kelly and others)
Description: as §1, §2
Cell lysates were prepared in NP-40 buffer (Invitrogen) containing complete protease inhibitor (Roche), phosphatase inhibitor (Roche) and phenylmethylsulfonyl fluoride (PMSF). Lysates were incubated on ice for 20 min and centrifuged at 16,000 g for 15 min at 4° C. Protein concentrations of the supernatants were determined with the DC protein assay kit (Bio-Rad). Protein samples were denatured using NuPAGE LDS sample buffer (Invitrogen) and NuPAGE sample reducing agent (Invitrogen). Proteins were then separated on precast 4-12% Bis-Tris gels (Invitrogen) and transferred to nitrocellulose membranes (Bio-Rad). After blocking in blocking buffer (5% dry milk in TBS with 0.2% Tween-20), membranes were incubated with the primary antibody overnight at 4 °C, washed three times with TBST buffer, chemiluminescent detection performed with the appropriate secondary antibodies and developed using Genemate Blue ultra-autoradiography film (VWR).

Chain of ALK receptor (Q9UM73 19-1038 limits assumed): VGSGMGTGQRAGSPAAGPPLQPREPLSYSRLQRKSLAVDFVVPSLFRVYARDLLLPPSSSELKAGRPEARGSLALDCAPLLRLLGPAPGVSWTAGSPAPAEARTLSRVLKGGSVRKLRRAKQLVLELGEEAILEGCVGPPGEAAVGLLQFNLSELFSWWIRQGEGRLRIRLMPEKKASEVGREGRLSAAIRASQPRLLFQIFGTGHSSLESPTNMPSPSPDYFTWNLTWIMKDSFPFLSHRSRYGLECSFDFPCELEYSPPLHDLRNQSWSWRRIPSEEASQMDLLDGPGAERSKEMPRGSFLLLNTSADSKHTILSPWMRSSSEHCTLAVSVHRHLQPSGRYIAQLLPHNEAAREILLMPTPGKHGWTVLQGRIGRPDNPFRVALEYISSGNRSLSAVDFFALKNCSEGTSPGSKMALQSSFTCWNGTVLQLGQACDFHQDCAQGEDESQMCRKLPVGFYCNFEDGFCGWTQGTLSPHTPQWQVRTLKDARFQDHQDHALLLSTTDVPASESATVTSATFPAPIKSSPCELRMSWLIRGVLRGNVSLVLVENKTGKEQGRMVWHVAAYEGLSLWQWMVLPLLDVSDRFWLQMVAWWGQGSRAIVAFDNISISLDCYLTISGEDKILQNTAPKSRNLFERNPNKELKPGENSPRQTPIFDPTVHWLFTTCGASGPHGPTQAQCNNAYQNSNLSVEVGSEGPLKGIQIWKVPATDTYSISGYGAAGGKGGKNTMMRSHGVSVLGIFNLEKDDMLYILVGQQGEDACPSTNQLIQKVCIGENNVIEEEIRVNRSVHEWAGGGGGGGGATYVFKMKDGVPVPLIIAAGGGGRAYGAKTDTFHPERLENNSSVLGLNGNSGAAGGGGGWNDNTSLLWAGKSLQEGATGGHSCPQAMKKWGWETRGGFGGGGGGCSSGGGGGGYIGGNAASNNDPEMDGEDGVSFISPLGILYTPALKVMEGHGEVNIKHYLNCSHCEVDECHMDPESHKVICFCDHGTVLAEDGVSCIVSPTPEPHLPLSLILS

B1: 8G7: murine monoclonal IgG1 anti-ALK antibody to the N-terminal ECD of human ALK; VH SEQ ID NO: 3, VL SEQ ID NO: 4 (antibody, V domains shown)
VH: QVQLQQSGAELVRPGASVTLSCKASGYTFTDYEMHWVKQTPVHGLEWIGAIDPETGGSAYNQKFKAKAILTADRSSSTAYMELRSLTSEDSAVYYCTRTRYYGSSPAMDYWGQGTSVTVSS
VL: DIQMTQTTSSLSASLGDRVTISCSASQGIGNYLNWYQQKPDGTVKLLIYYTSSLHSGVPSRFSGSGSGTDYSLTISNLEPEDIATYYCQQYSKLPYTFGGGTKLEIK
binding in immunocytochemistry and immunohistochemistry (ALK receptor): showed binding in engineered cells and transgenic mice tumors | recognition of ALK in immunoblotting assays (ALK [1]): recognize ALK in immunoblotting assays | specificity of ALK binding by western blot (ALK [1]; FIG. 15 and FIG. 25, compared with mAb-7 and C26G7 anti-ALK antibodies): better specificity compared to commercial Abs; also recorded: binds specifically to the N-terminal region of the ALK protein | ALK protein recognized by western blotting in cell lysates (ALK [2]; cell lysates of neuroblastoma cells expressing ALK): recognized a 220 kDa protein in the cell lysates of neuroblastoma cells; also recorded: detected the 220 kDa full-length protein but not the 140 kDa fragment in cell lysates | ALK protein recognized by western blotting in media (ALK [2]; conditioned media of NB cells, shed ECD domain): an approximately 100 kDa protein in the media; also recorded: ALK fragment with a molecular mass of approximately 100 kDa was identified in the conditioned media of all five NB cell lines
